Data on two molecules can be found in patent US20050147612A1 (published 2005).

For one experiment, the target named is FGFR3 wild type on cells (human, UniProt P22607 23-806). The experiment is described as follows: cell-based or functional assay.
The target of a further experiment is T1, FR3exFc (human).
T1 construct: Said to be entirely in dimeric form; also called FR3/Fc; FGFR3/Fc
Description: BIAcore, mini-antibody format.

T1 sequence (chain, as listed by the source limits assumed): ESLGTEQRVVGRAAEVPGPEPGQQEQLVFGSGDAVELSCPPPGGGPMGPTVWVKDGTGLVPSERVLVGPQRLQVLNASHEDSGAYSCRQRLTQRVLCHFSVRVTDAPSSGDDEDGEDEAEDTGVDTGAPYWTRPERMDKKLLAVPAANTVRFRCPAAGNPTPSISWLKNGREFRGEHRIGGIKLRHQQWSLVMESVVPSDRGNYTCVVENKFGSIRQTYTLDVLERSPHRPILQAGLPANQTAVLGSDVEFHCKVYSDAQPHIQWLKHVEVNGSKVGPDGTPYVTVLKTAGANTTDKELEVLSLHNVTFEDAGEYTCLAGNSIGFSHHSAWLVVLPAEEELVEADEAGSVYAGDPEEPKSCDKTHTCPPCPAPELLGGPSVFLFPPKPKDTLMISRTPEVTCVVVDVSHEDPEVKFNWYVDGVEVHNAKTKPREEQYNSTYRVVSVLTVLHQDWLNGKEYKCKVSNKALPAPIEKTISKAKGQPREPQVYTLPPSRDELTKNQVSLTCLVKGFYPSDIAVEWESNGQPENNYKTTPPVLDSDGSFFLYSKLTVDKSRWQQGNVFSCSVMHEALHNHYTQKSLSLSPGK
Chain of FGFR3 wild type on cells (P22607 23-806 limits assumed): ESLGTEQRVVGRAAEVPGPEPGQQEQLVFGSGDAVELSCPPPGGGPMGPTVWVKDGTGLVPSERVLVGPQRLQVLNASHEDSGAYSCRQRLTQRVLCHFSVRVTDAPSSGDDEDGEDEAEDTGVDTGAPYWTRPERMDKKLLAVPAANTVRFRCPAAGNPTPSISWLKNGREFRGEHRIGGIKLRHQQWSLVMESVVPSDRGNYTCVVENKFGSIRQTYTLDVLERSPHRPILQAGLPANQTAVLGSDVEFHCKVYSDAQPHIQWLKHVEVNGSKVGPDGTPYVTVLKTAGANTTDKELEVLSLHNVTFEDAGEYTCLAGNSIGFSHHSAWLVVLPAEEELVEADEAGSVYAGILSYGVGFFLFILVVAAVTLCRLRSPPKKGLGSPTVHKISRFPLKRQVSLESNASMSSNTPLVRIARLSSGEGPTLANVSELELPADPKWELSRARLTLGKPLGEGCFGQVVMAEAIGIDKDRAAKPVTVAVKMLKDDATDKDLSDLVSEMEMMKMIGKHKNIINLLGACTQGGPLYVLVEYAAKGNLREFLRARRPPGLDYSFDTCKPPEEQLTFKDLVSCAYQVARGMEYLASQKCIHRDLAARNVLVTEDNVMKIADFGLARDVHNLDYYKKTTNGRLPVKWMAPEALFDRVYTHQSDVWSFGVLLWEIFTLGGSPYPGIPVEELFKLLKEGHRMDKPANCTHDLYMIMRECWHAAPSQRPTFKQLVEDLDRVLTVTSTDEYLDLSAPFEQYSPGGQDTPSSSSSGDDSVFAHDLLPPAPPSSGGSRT

B1: MS-Pro-26-dHLX-MH (other, not shown: a dimerising Fc or GST; small tags and cut ends)
VH: QVQLVQSGAEVKKPGASVKVSCKASGYTFTSYYMHWVRQAPGQGLEWMGWINPNSGGTNYAQKFQGRVTMTRDTSISTAYMELSSLRSEDTAVYYCARGYWYAYFTYINYGYFDNWGQGTLVTVSS
VL: DIALTQPASVSGSPGQSITISCTGTSSDVGGYNYVSWYQQHPGKAPKLMIYDVSNRPSGVSNRFSGSKSGNTASLTISGLQAEDEADYYCQSYDNNSDVVFGGGTKLTVL
modifications: Dimeric Fab mini-antibody: Fab fused to the dHLX helix and the MH tag. These parts are not in the letters.
notes: Fab mini-antibody format Fab-dHLX-MH (dimer of the Fab); also called MSPRO26 Fab-dHLX; MSPRO26 dimeric dHLX format; copies: 2 + 2
Usually Kd stands for the free concentration of one partner at which half of the binding sites on the other are occupied at equilibrium, for simple one-to-one binding. Turning to B1, the “IC50, FDCP-FGFR3 proliferation assay with FGF9” value in the experiment with FGFR3 wild type on cells was determined as 8 nM. Further, in the experiment with FR3exFc, binding was characterised by a dissociation constant (Kd) of 2 nM.

B2: MS-Pro-24-dHLX-MH (other, not shown: a dimerising Fc or GST; small tags and cut ends)
VH: QVQLVQSGAEVKKPGSSVKVSCKASGGTFSSYAISWVRQAPGQGLEWMGGIIPIFGTANYAQKFQGRVTITADESTSTAYMELSSLRSEDTAVYYCARVNHWTYTFDYWGQGTLVTVSS
VL: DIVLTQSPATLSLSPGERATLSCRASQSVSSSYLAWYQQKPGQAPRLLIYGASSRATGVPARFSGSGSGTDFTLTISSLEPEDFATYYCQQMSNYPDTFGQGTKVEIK
modifications: Dimeric Fab mini-antibody: Fab fused to the dHLX helix and the MH tag. These parts are not in the letters.
notes: Fab mini-antibody format Fab-dHLX-MH (dimer of the Fab); copies: 2 + 2
B2 registered a Kd with FR3exFc of 2 nM. That is a single-digit nanomolar value.
